First the molecules themselves.
B1: human recombinant mesothelin (MSLN), residues 296-606, His tag (domain or fragment, UniProt Q13421 296-606, looked up)
chain: EVEKTACPSGKKAREIDESLIFYKKWELEACVDAALLATQMDRVNAIPFTYEQLDVLKHKLDELYPQGYPESVIQHLGYLFLKMSPEDIRKWNVTSLETLKALLEVNKGHEMSPQVATLIDRFVKGRGQLDKDTLDTLTAFYPGYLCSLSPEELSSVPPSSIWAVRPQDLDTCDPRQLDVLYPKARLAFQNMNGSEYFVKIQSFLGGAPTEDLKALSQQNVSMDLATFMKLRTDAVLPLTVAEVQKLLGPHVEGLKAEERHRPVRDWILRQRQDDLDTLGLGLQGGIPNGYLVLDLSMQEALSGTPCLLGP
B2: VH 3C9 (human antibody heavy chain variable domain) (VHH)
VHH: DVQLVESGGGVVQPGRSLRLSCAASGFTFSSYAMHWVRQAPGKGLEWVSSISGNSLYKYYADSVKGRFTISRDDSTNTLYLQMNSLRAEDTATYYCTRHWAVGNWGQGTLVTVSS

Experiment [1] has as its target VH-Fc 3C9 (VH 3C9 fused with human IgG1 Fc, bivalent) (human). Briefly: SPR. On the technique in general: SPR reads the build-up and loss of mass on a sensor chip optically.
The next experiment addresses VH-Fc 3C9-YF750 (human). The experiment can be described thus: ELISA.
The target in experiment [2] is B1. The experiment can be described thus: SPR.
Experiment [3] has as its target B1. Briefly: ELISA. A general note: ELISA stands for enzyme-linked immunosorbent assay.
The target of the next experiment is mouse MSLN (Mus musculus, UniProt Q61468). The experiment can be described thus: ELISA.

What is called EC50 is the concentration at which the effect is half-maximal.

Sequence of mouse MSLN (Q61468 36-600): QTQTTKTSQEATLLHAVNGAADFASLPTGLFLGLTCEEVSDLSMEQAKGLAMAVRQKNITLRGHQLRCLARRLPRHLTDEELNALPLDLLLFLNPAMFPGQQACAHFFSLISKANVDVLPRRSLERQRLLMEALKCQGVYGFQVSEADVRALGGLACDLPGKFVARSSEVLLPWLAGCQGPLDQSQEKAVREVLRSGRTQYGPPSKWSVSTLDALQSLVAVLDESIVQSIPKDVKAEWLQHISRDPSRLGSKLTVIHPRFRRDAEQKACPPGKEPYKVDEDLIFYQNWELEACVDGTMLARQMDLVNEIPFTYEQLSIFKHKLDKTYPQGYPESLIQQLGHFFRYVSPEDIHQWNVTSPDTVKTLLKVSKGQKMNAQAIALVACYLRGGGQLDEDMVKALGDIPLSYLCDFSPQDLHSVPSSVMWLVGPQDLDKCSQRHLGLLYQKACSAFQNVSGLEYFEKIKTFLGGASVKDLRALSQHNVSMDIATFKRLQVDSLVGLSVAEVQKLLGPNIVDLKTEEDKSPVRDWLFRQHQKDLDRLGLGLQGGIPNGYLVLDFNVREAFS

In experiment [1], B1 returned a Kd of 7 nM. Also, the binding result with VH-Fc 3C9-YF750 is recorded as “binds”.

On to B2, for which, in experiment [2], the Kd is under 3 nM. For the same molecule, in experiment [3], the EC50 was under 10 nM. The binding result with mouse MSLN is reported as “no binding”.

Values taken from PMC10522976 (Molecular Therapy Oncolytics, 2023).
